{"source": "patent US6734286", "about": "(CELLTECH R AND D, dated 2004)", "binders": {"B1": {"name": "CTIL-5-10 gH/gL6 antibody (antibody, V domains shown)", "VH": "EVQLVESGGGLVQPGGSLRLSCAVSGLSLTSNSVNWIRQAPGKGLEWVGLIWSNGDTDYNSAIKSRFTISRDTSKSTVYLQMNSLRAEDTAVYYCAREYYGYFDYWGQGTLVTVSS", "VL": "DIQMTQSPSSLSASVGDRVTITCLASEGISSYLAWYQQKPGKAPKLLIYGANSLQTGVPSRFSGSGSATDYTLTISSLQPEDFATYYCQQSYKFPNTFGQGTKVEVKR", "notes": "Human constant domains; also called CTIL-5-10 gH/qL6; CDR grafted 39D10"}}, "target": "T1, Recombinant human IL-5 (human, UniProt P05113 20-134)", "T1 construct": "also called human interleukin-5; hIL-5", "T1 sequence (looked up)": "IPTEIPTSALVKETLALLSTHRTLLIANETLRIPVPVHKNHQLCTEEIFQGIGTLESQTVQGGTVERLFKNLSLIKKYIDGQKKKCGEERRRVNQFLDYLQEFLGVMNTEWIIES", "test": "BIAcore; antibody captured by polyclonal anti-human Fc, recombinant human IL-5 as analyte", "description": "Affinities of the chimeric and CDR grafted anti-IL-5 antibodies were determined using Biospecific Interaction Analysis (BIA). Antibodies were produced in CHO cells by transfection of combinations of heavy and light chain genes and purified from culture supernatants on Protein A Sepharose. […] The amount of anti-IL-5 captured for each run was approximately 1600 RU. Recombinant human IL-5 was then passed over the Sensorchip at various concentrations (0.6 to 5 µg/ml) in the above buffer. The Sensorchip was cleaned after each run with 100 mM HCl and 100 mM orthophosphoric acid to remove bound IL-5 and antibody. The sensorgrams generated were analysed using the kinetics software available with the BIAcore machine.", "data": [{"binder": "B1", "values": [{"measurement": "binding result", "result": "binds"}]}]}
